Assay: yeast display, Sf9 membrane polyspecificity reagent, FACS + sequencing; frameworks hold sequencing errors
Outline: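 A nanobody's polyreactivity label depends on the gate it was sorted from. Yeast display cells were stained with 10% biotinylated, detergent-solubilized Sf9 membrane reagent for 1 hour at 4 °C, enriched on streptavidin microbeads and sorted by FACS. The low and high (top ~1%) gates were set on anti-HA fluorescence for expression and streptavidin fluorescence for reagent binding.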

Sequence | polyreactivity (PSR sort gate)
EEELVESGGGLVQAGGSLLLSCAAYGRILPRNDMGWYRQAPGKERELVAVISSGGSTYYPDSVKGRFTISRDNAKNTVYLQINSVKPEDTAVYYCLGGYYYLQYDYWGQGTQVTVSS | low polyreactivity
EEELVESGGGLVQAGGSLRLSCAASARISTVMLWDWYRQAPGKDRELVAAITKSGGSTYYADSVKGRFTISRDNAKNTVYLQMNSLIPEDTAVYYCAADRYAILFYAEDYWGQGTQETVSS | low polyreactivity
EEELVESGGGLVQAGGSLRLSCAASGNIFEVNTMGWYRQAPGKERELVAAITSTGSTNYADSVKGRFTISRDNAKNTVYLQMNSLKPVDTAVYYSSATLEWYRYTYEYDYWGQGTQVTVSS | low polyreactivity
EEELVESGGGLVQAGGSLRLSCAASGRTFVYNAMGWYRQAPGTERELVAAITSGDSTYYADSVKGRFTISRDNAKNTVYLQMNSLKPEDTAVYYCATDYSGIFYWYDYWGQGTQVTVSS | low polyreactivity
EEELVESGGGLVQAGGSLRLSCAASGRTLAGYPMGWYRQAPGKERELVAAISSSGGSTYYADSVKGRFTISRDNAKNTVYLQMNSLKPEDTAVYYCNRYSSYIPYPYNYWGQGTQVTVSS | high polyreactivity
EEELVESGGGLVQAGGSLRLSCAASGSIFTHYAMGWYRPAPGKERELVAAISWSGGSTYYADSVKGRFTISRDNAKKTVYLQMNSLKPEDTAVYYCAAETYWGDDYWGQGTQVTVSS | high polyreactivity
EEELVESGGGLVQAGGSLRLSCAATGSIFVVNAMRWYRQAPGKERELVAAIARGGITNYADSVKGRFTISRDNAKNTVYLQMNSLKPEDTAVYYCNARGSRWVKPDRDYWGQGTQVTVSS | low polyreactivity
EEELVESGGGLVQAGVSLRISCAASGSIFNYNAMGWYRQAPGKERELVAAISRGGTTNYADSVKGRFTISRDNANNTVYLQMNSLKPEDTAVYYCAAKAYDYYGPVYYWGQGSQVTVSS | high polyreactivity
EVQLVESGGGLFQAGGSLRLSCAASGFTFYRYAMGWYRQAPGKERELVAGITWGGGRTYYADSVKGRFTISRDNAKNTVYFQMNSLKPEATAVYYCAAYYSQDSRRKYDYWGQVTQVTVSS | high polyreactivity
EVQLVESGGGLVQAGGSLRLSCAASGSIFSFYAMGWYRQAPGKERELVAAISRSAGRTYYADSVKGRFTISRDNATNTVYLQRNSLKPEDTAVYYCNKASWYNGEMDYWGQGTQVTVSS | high polyreactivity
EVQLVESGGGLVQAGGSLRLSCAASGSIYGSYAKGWYRQAPGKERELVAGITYRGSSTYYADSVKGRFTISRDNAKYTVYLLMNSLKPEDTAVYYCAADPVFDEYDYWGQGTQVTVSS | low polyreactivity
EVQLVESGGGLVQPGGSLRLSCAASGYIYSRYRMGWYRQAPGKGREFVAAISGGSSTTYADSVKGRFTISRDNSKNTVYLQMNSLRAEDTAVYYCAAYKIDSDPRVYWGQGTQVTVSS | low polyreactivity
EVQLVESRGGLVQAGGSLRLSCAASGSILVGYAMGWYRQAPGKERELVAAISFSGGSTYYADSVKGRFTISRDNAKNTVFLQLNSLKPEDTAVYYCASKRRVWIFYSSSDDYWGQGTQVTVSS | low polyreactivity
HAQLQESGGGLVQAGGSLRRSCAASGSIFRFSRMGWYRRAPGKERELVASIGFGSITYYADRVKGRFTISRDNANNTVYLQMNSLKPEDTAVYYCAVQVQDESWLDYWGQGTQVTVSC | low polyreactivity
HAQLQESGVGLVQAGGSLRRSCAASGSIFRFSGMGWYRRAPGKERELVASIGFGSITYYADRVKGRFTISRDNANNTEYLQMNSLKPEDTAVYYCAVQVQDESWLDYWGQGTQVTVSC | low polyreactivity
HDQLVESAAGLVQAGGSLRLSCAASVLTFYQNALGWYRQAAGKEMEFVAAISRRGGSTYYADSVKGRFTISRDNAKNTVYLQMNSLKPEDTAVYYCAADYKRKSDGDYWGQGTQVTVSS | high polyreactivity
HDQLVESGGGFVQAGGSLRLSCAASGSIFRYNPMGWYRQAPGKEMELVAAISYGGGITRYADSVKGRFTISRDNAKNTVYLQMNSLKPEDTAVYYCNKAYVWRRMDYWGQGTQVTVSS | high polyreactivity
HDQLVESGGGLVEAGGSLRLSCAASGITFKGYAMGWYRPAPGKERELVAAITSGGSTKYADSVKGRFTSSRDNAKNTVYLQMNSLKPEDTAVYYCAAAVVNYGWWTYGYYGFGYWGQGTQVTVSS | high polyreactivity
HFQLVEAGGGLVQAGGSLSLSCADSGRTYSHYAMGWYSQAPAQVRELVAGISSGSRTNYADSVKGRFTISRDNAKNTVYLQMNSLKPEDTAFYYCAARTNYLKGGYWGQGTQVTVSS | high polyreactivity
HGQLVDSGGGLVQAGGSLRLICAASGYTYYDYAMGRYREAPGKEMELVADISTSDGSTFYADSVKGRFTISRDNAKNTVYLQMNSLKPEDTAVYYCNTDGSLGLYDWFWPSNNDYWGQGTQVTVSS | low polyreactivity
HLQLEESGVGLVQAGGSLRLSCAASGSTFTFNAMGWYRQAPAKSRELVAAIRWNGESTYYADSVKGRFSISRDNAKNTVYIQMNSLNPEDTAVYYCAATRLLSKSGDRYYYWGQGTQVTVSS | low polyreactivity
HVHLQESGGGLVQAGGSLRLSCAASGSINDETYMAWYRQAPGKERELVATIDSGSTTNYADSVKGRITISRDNAKNTVYLQMNSLKPEDTAVYYCAAADSHIDYFDYWGQGSQVTVSS | low polyreactivity

Sequence | polyreactivity (PSR sort gate)
HVHLVESGGGLVQAGGRLRLTCAASGRTFQKYAMGWYREAPRKERELVAAITTSGGSTYYADSVKGRFTISRDYAKYTVYLQMNSLKPEDTAVYYCNKAYAYAGHDYDWGQGTKVTVSS | high polyreactivity
HVLLVESGGGLVQAGGSLLLSCAASGSPFYTNAMVGFRKAPGKEREVVASITDGGDSTQYADSVKGRFTISRDYAKNTVYLQMNSLKPEDTAVYYCAVDYHYFQEYDTWGQGTQVTVSS | low polyreactivity
HVQLEESGGGLVQAGGSLRLTCAASGSIFYAYAMGWYIPATGKERELVAVISNGGGSTYYADSVKGRFTISRDNSKNSVYLQMNSVKPEDTAVYFCAAVLAESVYYSDYDYWGQGTQVTVSS | low polyreactivity
HVQLEESGRGLVQAGGSLRLSCAASGRTFTSNAIGWYRQAPGKERELVAVITSGGSTNYADSVKGRFTISRDNAMNTVYLQMNSLKPEDTAVYYCNARSGRGQAYGYWGQGTQVTVSS | high polyreactivity
HVQLQESAGGLVQAGASLRLSCAPSGNISYSRNMGWYRQAPGKERELVAAIDRGAITYYADSVKGRFTISRDNEKNTVYLQIFSLKPEDTAVYYCAAVYHDRWDHRYWGQGTQVTVSS | high polyreactivity
HVQLQESGGGLVQAGGSLRLICAASGNIVDDDIMGWYRQAPGKEREIVASITDGGSTNYADSLKGRFTISRDNAKNTVYQQMNILIREVTAVYYCAAIAYPDIPTYFVYDSDSFYWGQGTQETVSS | high polyreactivity
HVQLQESGGGLVQAGGSLRLSCAASGNISYSRNMGWYRQAPGKERELVAAIDRGAITYYADSVKGRFTISRDNAKNTVYLQIYSLKPEDTAVYYCAAEYHDRWDHRYWGQGTQVTVSS | high polyreactivity
HVQLQESGGGLVQAGGSMRLSCAESGSISELRPMGLYRKAPGKERELVAGISTGGSTNYADSVKGRFTISLDNAKNTVYLQMNSLKPEYTAVYFCAAASYCEGTYDYWGQGTQVTVRS | high polyreactivity
HVQLQESGGGLVQPGGSLRLSCAASGNISFSRNMGWYRQAPGKERELVAAIDRGAITYYGDSVKGRFTISRDNAKNTVYLQIYSLKPEDTAVYYCAAEYHDGWDHRYWGQGTQVTVSS | high polyreactivity
HVQLVESGGGFVQAGGSLRLICAASVRNFDVYSMGWYRQAPGKERELVAAISRRGGSTYYADSVKGRFTISRDNAKNTVYLQMNRLKPEDTAVYYCAAQSRQAYMTYGYWGLGTQVTVSS | high polyreactivity
HVQLVESGGGIVQAGGILRLSCAASGRIFSVYTMGWYRKAPGQERELVAAISSGASTNYADSVKGRFTISRDNAKNTVYLQMNSLKPEDTAVYYCAKEYGIYTDTPYYYWGQGTQVTVSS | low polyreactivity
HVQLVESGGGLFQAGGSLRLCCAASGSISGLYAMGWYRQAPGKERELVAAITLRDGTTSYADSVKGRFTISRDNAKITVYLQMNSLKPEDTDVYYCAAVDRDSKCSVPTLDHWGQGTQVTVSS | low polyreactivity
HVQLVESGGGLGQAGGSLRLSCAASGSIFYVNAIGWYRQAPGKERELVADITWSGGSTYYADSVKGRFTISRDHAQTTVYLQMNSLKPEDTAVYYCAAKVKHWYYPYYYWGQGTQVTVSS | low polyreactivity
HVQLVESGGGLVQAGGILRLSFAASGFIFCYYTMGWYRQATGKERELVAAINSGGSTNYADSVKGRFTISRDNAKNTVYLQMNSLKPEDTAVYYCAALVWYSGELFYYWGQGTQVTVSS | low polyreactivity
HVQLVESGGGLVQAGGRLRLSCAASGGTFWHYAMGWYRKAPGKERELFAAIRWRGVRTYYADSVKGRFTISRDNAKNTVYLQMNSLKPEDTAVYYCASTTWRSGRYNYWGQGTQVTVSS | high polyreactivity
HVQLVESGGGLVQAGGSLRISCAASGRTLEQYAMGWYRQAPGKERELVAAINKSGARTYYADSVKGRFTISRDNAKNTVYLQMNSLKPEDTAVYYCNTVGPCYLFDYWGQGTQVTVSS | high polyreactivity
HVQLVESGGGLVQAGGSLRLSCAASARIFVTYAMGWYREAPGKETELVAAISSRGGRTNYADSVKGRFTISRDNAQNTVYLQMNSLKPEYTAVYYFAARYWYIYNYDYWGQGTQVTVSS | high polyreactivity
HVQLVESGGGLVQAGGSLRLSCAASGFTFPLYALGWYRPAPGKEREVVAAIRSSGGSTYYADSVKGRFTISRDKAKNTVNLQMNSLKPEDTAVSYCAKVRSTRRLDTYYYWGQGTQVTVSS | high polyreactivity
HVQLVESGGGLVQAGGSLRLSCAASGFTFYVYAMGWYRQAPGTERELVAAISRGGSTYYADSVKGRFTISRDNAKNTVYLQMNSLKPEDTAVYYCNRVPSVSSSKVRYSNGFDYWGQGTQVTVSS | low polyreactivity
HVQLVESGGGLVQAGGSLRLSCAASGGTFGRYARGWYRQAPGKERELVAAISSGGSTNYADSVKGRFTISRDNAKYTVYLLMNSLKPEDTAVYYCAADGPSGVRQYDYWGQGTQVTVSS | low polyreactivity
HVQLVESGGGLVQAGGSLRLSCAASGIIFRYKALGWYREAPGKERELVAAISVSGGSTYYADSVKGRFTISRDNAKNTVDLQMNSLKPEDTAVDYCAALLYRYGVHQAEHDYWGQGTQVTVSS | high polyreactivity

Source: the nanobody polyreactivity screen of Harvey et al. (2022)
